Experimental data taken from patent US20150165065A1 (AVIDBIOTICS, published 2015).

Legend:
integrin αVβ5 = biological target: T1, integrin αVβ5 (UniProt P06756 31-992; P18084 24-719); test: phage ELISA, coated integrin, anti-M13-HRP
T1 construct: Coated on the ELISA plate
Procedure: (§1) The phage vectors were independently transformed into NEBαF′tet competent E. coli cells. Phages produced by the transformed cells were tittered and their concentrations adjusted by dilution to 10¹³ per ml. The ability of the soluble MICA molecules in each of the phage preparations was assayed by an ELISA using the intended target proteins, integrin αVβ3 or αVβ5, as capture agents on the ELISA plate. After the respective integrins were adhered to the bottoms of the wells of the ELISA plate, the wells were washed and blocked, as well known in the field. Each sample (100 μl) of phage preparation was added to wells containing αVβ3 or αVβ5, incubated and washed. The phages captured by the integrins were detected by HRP-conjugated antibody to the M13 phage coat developed with Ultra TMB-ELISA substrate and the optical densities read.

integrin αVβ3 = biological target: T2, integrin αVβ3 (UniProt P06756 31-992; P05106 27-718); test: phage ELISA, coated integrin, anti-M13-HRP
T2 construct: Coated on the ELISA plate
T2 sequence (P06756 31-992, chain 1 of 2): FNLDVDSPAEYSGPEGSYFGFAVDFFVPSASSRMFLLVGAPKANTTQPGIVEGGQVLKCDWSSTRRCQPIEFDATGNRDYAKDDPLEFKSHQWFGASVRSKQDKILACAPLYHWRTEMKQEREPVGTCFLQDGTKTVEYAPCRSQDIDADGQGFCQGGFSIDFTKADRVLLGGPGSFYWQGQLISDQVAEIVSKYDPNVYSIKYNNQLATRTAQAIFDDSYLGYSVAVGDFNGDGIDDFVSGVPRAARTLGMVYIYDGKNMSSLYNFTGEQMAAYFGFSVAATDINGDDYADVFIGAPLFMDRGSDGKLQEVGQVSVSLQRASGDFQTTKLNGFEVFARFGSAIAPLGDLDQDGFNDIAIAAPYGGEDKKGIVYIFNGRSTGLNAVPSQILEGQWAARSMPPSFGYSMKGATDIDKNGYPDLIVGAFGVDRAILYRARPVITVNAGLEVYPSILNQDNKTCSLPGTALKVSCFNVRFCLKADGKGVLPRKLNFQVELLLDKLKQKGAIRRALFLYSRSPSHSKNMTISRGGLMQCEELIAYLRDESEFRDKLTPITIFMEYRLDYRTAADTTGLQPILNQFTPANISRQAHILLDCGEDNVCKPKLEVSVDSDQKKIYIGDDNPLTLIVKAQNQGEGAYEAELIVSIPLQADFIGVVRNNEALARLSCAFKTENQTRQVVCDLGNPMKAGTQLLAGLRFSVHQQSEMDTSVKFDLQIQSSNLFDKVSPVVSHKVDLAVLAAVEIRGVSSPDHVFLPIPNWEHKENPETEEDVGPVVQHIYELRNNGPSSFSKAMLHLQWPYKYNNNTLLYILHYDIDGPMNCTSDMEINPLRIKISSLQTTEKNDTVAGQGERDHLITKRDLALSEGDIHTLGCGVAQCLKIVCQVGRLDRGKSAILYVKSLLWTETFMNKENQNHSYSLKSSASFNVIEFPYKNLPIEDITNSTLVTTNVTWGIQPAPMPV
T2 sequence (P05106 27-718, chain 2 of 2): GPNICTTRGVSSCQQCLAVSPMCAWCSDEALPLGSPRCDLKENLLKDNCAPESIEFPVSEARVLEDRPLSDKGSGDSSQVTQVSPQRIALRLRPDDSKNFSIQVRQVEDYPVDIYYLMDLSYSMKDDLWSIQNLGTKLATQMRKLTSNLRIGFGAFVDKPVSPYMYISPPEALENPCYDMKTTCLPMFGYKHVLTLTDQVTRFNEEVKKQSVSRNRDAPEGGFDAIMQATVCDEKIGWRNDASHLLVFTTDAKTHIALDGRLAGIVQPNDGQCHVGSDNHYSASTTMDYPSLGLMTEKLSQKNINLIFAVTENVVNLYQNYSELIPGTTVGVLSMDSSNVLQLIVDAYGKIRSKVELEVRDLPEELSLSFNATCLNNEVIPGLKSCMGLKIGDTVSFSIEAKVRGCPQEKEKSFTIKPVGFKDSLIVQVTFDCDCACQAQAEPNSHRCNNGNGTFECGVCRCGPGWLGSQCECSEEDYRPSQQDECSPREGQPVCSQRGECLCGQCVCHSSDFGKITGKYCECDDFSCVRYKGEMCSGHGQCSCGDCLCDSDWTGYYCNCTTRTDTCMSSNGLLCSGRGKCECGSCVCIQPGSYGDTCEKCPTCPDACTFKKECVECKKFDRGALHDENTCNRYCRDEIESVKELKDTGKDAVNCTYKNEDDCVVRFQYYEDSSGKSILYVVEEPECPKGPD
Procedure: as §1

the targeted integrin = test: cell-based or functional assay

T1 sequence (P06756 31-992, chain 1 of 2): as the sequence (P06756 31-992, chain 1 of 2) above
T1 sequence (P18084 24-719, chain 2 of 2): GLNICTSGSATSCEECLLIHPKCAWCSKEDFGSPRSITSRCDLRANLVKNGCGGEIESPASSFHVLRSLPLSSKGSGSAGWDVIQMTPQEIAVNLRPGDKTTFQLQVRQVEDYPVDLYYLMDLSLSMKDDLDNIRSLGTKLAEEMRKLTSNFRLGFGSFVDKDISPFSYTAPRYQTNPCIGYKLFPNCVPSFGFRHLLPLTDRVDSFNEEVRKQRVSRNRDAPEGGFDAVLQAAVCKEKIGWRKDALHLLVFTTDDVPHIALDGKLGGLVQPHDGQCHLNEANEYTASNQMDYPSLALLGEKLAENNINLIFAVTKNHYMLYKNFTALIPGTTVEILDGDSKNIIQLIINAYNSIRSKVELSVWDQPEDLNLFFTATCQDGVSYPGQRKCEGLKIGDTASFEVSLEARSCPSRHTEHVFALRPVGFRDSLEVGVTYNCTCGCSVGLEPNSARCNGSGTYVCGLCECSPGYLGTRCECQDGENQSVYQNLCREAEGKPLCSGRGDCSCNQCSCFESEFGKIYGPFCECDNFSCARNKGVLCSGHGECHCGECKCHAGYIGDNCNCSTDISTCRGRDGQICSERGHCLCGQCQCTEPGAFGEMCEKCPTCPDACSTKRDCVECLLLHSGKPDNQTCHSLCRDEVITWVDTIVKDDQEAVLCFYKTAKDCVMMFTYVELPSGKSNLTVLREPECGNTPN

Row | Binder | αvβ5 signal (integrin αVβ5) [OD] | αvβ3 signal (integrin αVβ3) [OD] | also measured
1 | M13 phage pKK97 displaying MICA α3 domain with loop 1 insert 5.2 (designed binder, also called 1-5.2; not shown: C-terminal portion of M13 gene III protein, fused at codon position 198) TVPPMVNVTRGDTFTQSVTCRASGFYPWNITLSWRQDGVSLSHDTQQWGDVLPDGNGTYQTWVATRICQGEEQRFTCYMEHSGNHSTHPVPSGK | 2.59 | 1.55 | 
2 | soluble MICA generated from pKK131 (loop 1 extended 5.1sp, loop 3 extended 5.1spNH) (designed binder) HHHHHHEPHSLRYNLTVLSWDGSVQSGFLTEVHLDGQPFLRCDRQKCRAKPQGQWAEDVLGNKTWDRETRDLTGNGKDLRMTLAHIKDQKEGLHSLQEIRVCEIHEDNSTRSSQHFYYDGELFLSQNLETEEWTMPQSSRAQTLAMNVRNFLKEDAMKTKTHYHAMHADCLQELRRYLKSGVVLRRTVPPMVNVTSGGSGGGSVTRGDTFTQSSGGSGGGVTCRASGFYPWNITLSWRQDGVSLSHDTQQWGDVLPDGNGTYQTWVATRISGGSGGGSVTRGDTFTQSSGGSGGGCYMEHSGNHSTHPVPSGK |  |  | green fluorescent signal from live MCF cells; 64 pg targeted MICA, NK 5:1 (the targeted integrin): 5180 fluorescence; green fluorescent signal from live MCF cells; 64 pg targeted MICA, NK 10:1 (the targeted integrin): 3700 fluorescence; green fluorescent signal from live MCF cells; 64 pg targeted MICA, no NK cells (the targeted integrin): 5030 fluorescence; green fluorescent signal from live MCF cells; 128 pg targeted MICA, NK 5:1 (the targeted integrin): 3460 fluorescence; green fluorescent signal from live MCF cells; 128 pg targeted MICA, NK 10:1 (the targeted integrin): 2190 fluorescence; red fluorescent signal from (dead) MCF cells; 64 pg targeted MICA, NK 5:1 (the targeted integrin): 27 fluorescence; red fluorescent signal from (dead) MCF cells; 64 pg targeted MICA, NK 10:1 (the targeted integrin): 31 fluorescence; red fluorescent signal from (dead) MCF cells; 64 pg targeted MICA, no NK cells (the targeted integrin): 19.9 fluorescence; red fluorescent signal from (dead) MCF cells; 128 pg targeted MICA, NK 5:1 (the targeted integrin): 25.6 fluorescence; red fluorescent signal from (dead) MCF cells; 128 pg targeted MICA, NK 10:1 (the targeted integrin): 41 fluorescence
3 | M13 phage pKK104 displaying MICA α3 domain with loop 3 insert 3.2sp (designed binder, also called 3-3.2sp; not shown: C-terminal portion of M13 gene III protein, fused at codon position 198) TVPPMVNVTRSEASEGNITVTCRASGFYPWNITLSWRQDGVSLSHDTQQWGDVLPDGNGTYQTWVATRISGGSGGGSTSRGDHPRTQSGGSGGGCYMEHSGNHSTHPVPSGK | 1.12 | 0.791 | 
4 | M13 phage pKK105 displaying MICA α3 domain with loop 3 insert 3.3sp (designed binder, also called 3-3.3sp; not shown: C-terminal portion of M13 gene III protein, fused at codon position 198) TVPPMVNVTRSEASEGNITVTCRASGFYPWNITLSWRQDGVSLSHDTQQWGDVLPDGNGTYQTWVATRISGGSGGGSRVPRGDSDLTSGGSGGGCYMEHSGNHSTHPVPSGK | 1.11 | 1.33 | 
5 | M13 phage pKK107 displaying MICA α3 domain with tight loop 1 insert T-3.1 (designed binder, also called 1-T-3.1; not shown: C-terminal portion of M13 gene III protein, fused at codon position 198) TVPPMVNTSRGDHPRTQCRASGFYPWNITLSWRQDGVSLSHDTQQWGDVLPDGNGTYQTWVATRICQGEEQRFTCYMEHSGNHSTHPVPSGK | 1.49 | 0.999 | 
6 | M13 phage pKK111 displaying MICA α3 domain with tight loop 1 insert T-5.3 (designed binder, also called 1-T-5.3; not shown: C-terminal portion of M13 gene III protein, fused at codon position 198) TVPPMVNHLARGDDLTYCRASGFYPWNITLSWRQDGVSLSHDTQQWGDVLPDGNGTYQTWVATRICQGEEQRFTCYMEHSGNHSTHPVPSGK | 0.657 | 0.707 | 
7 | M13 phage pKK108 displaying MICA α3 domain with tight loop 1 insert T-3.5 (designed binder, also called 1-T-3.5; not shown: C-terminal portion of M13 gene III protein, fused at codon position 198) TVPPMVNGSRGDSLIMHCRASGFYPWNITLSWRQDGVSLSHDTQQWGDVLPDGNGTYQTWVATRICQGEEQRFTCYMEHSGNHSTHPVPSGK | -0.204 | -0.09 | 
8 | M13 phage pKK110 displaying MICA α3 domain with tight loop 1 insert T-5.1 (designed binder, also called 1-T-5.1; not shown: C-terminal portion of M13 gene III protein, fused at codon position 198) TVPPMVNVTRGDTFTQSCRASGFYPWNITLSWRQDGVSLSHDTQQWGDVLPDGNGTYQTWVATRICQGEEQRFTCYMEHSGNHSTHPVPSGK | 2.56 | 1.49 | 
9 | M13 phage pKK101 displaying MICA α3 domain with loop 1 insert 3.3sp (designed binder, also called 1-3.3sp; not shown: C-terminal portion of M13 gene III protein, fused at codon position 198) TVPPMVNVTSGGSGGGSRVPRGDSDLTSGGSGGGVTCRASGFYPWNITLSWRQDGVSLSHDTQQWGDVLPDGNGTYQTWVATRICQGEEQRFTCYMEHSGNHSTHPVPSGK | 1.23 | 1.49 | 
